T1: FcγRIIa R (FcγRIIa, allotype R, Arg at position 131), extracellular domain with C-terminal His tag (human, UniProt P12318 34-217)
T1 construct: extracellular domain; soluble receptor used as Biacore analyte; also called 2aR; FcgRIIa R
T1 sequence (looked up): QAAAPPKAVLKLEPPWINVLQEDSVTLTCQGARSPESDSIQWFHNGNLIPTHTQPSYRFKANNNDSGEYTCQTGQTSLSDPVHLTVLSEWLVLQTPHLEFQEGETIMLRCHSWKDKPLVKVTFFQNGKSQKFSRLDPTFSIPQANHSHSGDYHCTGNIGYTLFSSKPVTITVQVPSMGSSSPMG

T2: FcγRIIb, extracellular domain with C-terminal His tag (human, UniProt P31994 43-217)
T2 construct: extracellular domain; soluble receptor used as Biacore analyte; also called 2b; FcgRIIb
T2 sequence (looked up): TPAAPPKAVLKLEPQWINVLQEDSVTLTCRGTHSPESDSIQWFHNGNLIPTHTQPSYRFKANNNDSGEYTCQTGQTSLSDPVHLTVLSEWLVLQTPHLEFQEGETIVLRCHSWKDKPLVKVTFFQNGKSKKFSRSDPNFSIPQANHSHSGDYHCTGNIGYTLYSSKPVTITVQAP


Tests used:
[1] = biological target: T1, FcγRIIa R (FcγRIIa, allotype R, Arg at …); assay: Biacore SPR; binding relative to GpH7-A5/GpH7-B3/GpL16-k0 (=100)
Method: (§1) The heterodimerized antibodies He Abs in which one of the H chains was introduced with an alteration were assayed for their binding activities to each activating FcγR and inhibitory FcγR according to the method described in Example 4. […] The activating FcγRs in FIGS. 26, 27, 28, and 29 are FcγRIa, FcγRIIa (R), FcγRIIa (H), and FcγRIIIa, respectively.
(§2) Analysis of interaction between objective antibody and the FcγR was carried out using Biacore T100 (GE Healthcare). HBS-EP+ (GE Healthcare) was used as the running buffer, and the measurement temperature was set to 25° C. Chips produced by immobilizing the antigen peptide by the amine coupling method to a Series S Sencor Chip CM5 (GE Healthcare), or alternatively, chips produced by allowing preliminarily biotinylated antigen peptides to interact with and immobilize onto a Series S Sensor Chip SA (certified) (GE Healthcare) were used. Antibodies of interest were captured onto an antigen peptide-immobilized chip, and allowed to interact to each FcγR diluted with running buffer. To regenerate and repeatedly use the chip, the antibodies captured on the chip were washed off by reacting 10 mM glycine-HCl, pH 1.5.

[2] = biological target: T2, FcγRIIb, extracellular domain with …; assay: as above
Method: as §1, §2

[3] = biological target: T1, FcγRIIa R (FcγRIIa, allotype R, Arg at …); assay: Biacore SPR; He/Con_2aR divided by He/Con_2b (FcγRIIb)
Method: as §1, §2

Binder | He/Con_2aR (IIaR binding) [1] | He/Con_2b (IIb binding) [2] | IIaR/IIb (He_2aR/2b) [3]
heterodimerized antibody GpH7-A5/GpH7-B3 variant K326_10E/GpL16-k0 (antibody, human IgG1, kappa, He Ab: anti-glypican-3 IgG1, alteration in one H chain only; also called He Ab) heavy 1: not shown heavy 2: not shown light: DIVMTQSPLSLPVTPGEPASISCQASESLVHSNRNTYLHWYLQKPGQSPQLLIYKVSNRFSGVPDRFSGSGSGTDFTLKISRVEAEDVGVYYCSQNTHVPPTFGQGTKVEIERTVAAPSVFIFPPSDEQLKSGTASVVCLLNNFYPREAKVQWKVDNALQSGNSQESVTEQDSKDSTYSLSSTLTLSKADYEKHKVYACEVTHQGLSSPVTKSFNRGEC | 148 % of control | 200 % of control | 0.74
heterodimerized antibody GpH7-A5/GpH7-B3 variant N325_06M/GpL16-k0 (antibody, human IgG1, kappa, He Ab: anti-glypican-3 IgG1, alteration in one H chain only; also called He Ab) heavy 1: not shown heavy 2: not shown light: DIVMTQSPLSLPVTPGEPASISCQASESLVHSNRNTYLHWYLQKPGQSPQLLIYKVSNRFSGVPDRFSGSGSGTDFTLKISRVEAEDVGVYYCSQNTHVPPTFGQGTKVEIERTVAAPSVFIFPPSDEQLKSGTASVVCLLNNFYPREAKVQWKVDNALQSGNSQESVTEQDSKDSTYSLSSTLTLSKADYEKHKVYACEVTHQGLSSPVTKSFNRGEC | 152 % of control | 217 % of control | 0.7
heterodimerized antibody GpH7-A5/GpH7-B3 variant L328_04F/GpL16-k0 (antibody, human IgG1, kappa, He Ab: anti-glypican-3 IgG1, alteration in one H chain only; also called He Ab) heavy 1: not shown heavy 2: not shown light: DIVMTQSPLSLPVTPGEPASISCQASESLVHSNRNTYLHWYLQKPGQSPQLLIYKVSNRFSGVPDRFSGSGSGTDFTLKISRVEAEDVGVYYCSQNTHVPPTFGQGTKVEIERTVAAPSVFIFPPSDEQLKSGTASVVCLLNNFYPREAKVQWKVDNALQSGNSQESVTEQDSKDSTYSLSSTLTLSKADYEKHKVYACEVTHQGLSSPVTKSFNRGEC | 138 % of control | 219 % of control | 0.63
heterodimerized antibody GpH7-A5/GpH7-B3 variant L328_09D/GpL16-k0 (antibody, human IgG1, kappa, He Ab: anti-glypican-3 IgG1, alteration in one H chain only; also called He Ab) heavy 1: not shown heavy 2: not shown light: DIVMTQSPLSLPVTPGEPASISCQASESLVHSNRNTYLHWYLQKPGQSPQLLIYKVSNRFSGVPDRFSGSGSGTDFTLKISRVEAEDVGVYYCSQNTHVPPTFGQGTKVEIERTVAAPSVFIFPPSDEQLKSGTASVVCLLNNFYPREAKVQWKVDNALQSGNSQESVTEQDSKDSTYSLSSTLTLSKADYEKHKVYACEVTHQGLSSPVTKSFNRGEC | 119 % of control | 199 % of control | 0.6
heterodimerized antibody GpH7-A5/GpH7-B3 variant L328_07I/GpL16-k0 (antibody, human IgG1, kappa, He Ab: anti-glypican-3 IgG1, alteration in one H chain only; also called He Ab) heavy 1: not shown heavy 2: not shown light: DIVMTQSPLSLPVTPGEPASISCQASESLVHSNRNTYLHWYLQKPGQSPQLLIYKVSNRFSGVPDRFSGSGSGTDFTLKISRVEAEDVGVYYCSQNTHVPPTFGQGTKVEIERTVAAPSVFIFPPSDEQLKSGTASVVCLLNNFYPREAKVQWKVDNALQSGNSQESVTEQDSKDSTYSLSSTLTLSKADYEKHKVYACEVTHQGLSSPVTKSFNRGEC | 124 % of control | 160 % of control | 0.78
heterodimerized antibody GpH7-A5/GpH7-B3 variant L328_10E/GpL16-k0 (antibody, human IgG1, kappa, He Ab: anti-glypican-3 IgG1, alteration in one H chain only; also called He Ab) heavy 1: not shown heavy 2: not shown light: DIVMTQSPLSLPVTPGEPASISCQASESLVHSNRNTYLHWYLQKPGQSPQLLIYKVSNRFSGVPDRFSGSGSGTDFTLKISRVEAEDVGVYYCSQNTHVPPTFGQGTKVEIERTVAAPSVFIFPPSDEQLKSGTASVVCLLNNFYPREAKVQWKVDNALQSGNSQESVTEQDSKDSTYSLSSTLTLSKADYEKHKVYACEVTHQGLSSPVTKSFNRGEC | 105 % of control | 172 % of control | 0.61
heterodimerized antibody GpH7-A5/GpH7-B3 variant N325_07I/GpL16-k0 (antibody, human IgG1, kappa, He Ab: anti-glypican-3 IgG1, alteration in one H chain only; also called He Ab) heavy 1: not shown heavy 2: not shown light: DIVMTQSPLSLPVTPGEPASISCQASESLVHSNRNTYLHWYLQKPGQSPQLLIYKVSNRFSGVPDRFSGSGSGTDFTLKISRVEAEDVGVYYCSQNTHVPPTFGQGTKVEIERTVAAPSVFIFPPSDEQLKSGTASVVCLLNNFYPREAKVQWKVDNALQSGNSQESVTEQDSKDSTYSLSSTLTLSKADYEKHKVYACEVTHQGLSSPVTKSFNRGEC | 133 % of control | 171 % of control | 0.78

Other lines, results leading:

He/Con_2aR (IIaR binding) [1] | He/Con_2b (IIb binding) [2] | IIaR/IIb (He_2aR/2b) [3] | Binder
174 % of control | 312 % of control | 0.56 | heterodimerized antibody GpH7-A5/GpH7-B3 variant P238_04F/GpL16-k0 (antibody, human IgG1, kappa, He Ab: anti-glypican-3 IgG1, alteration in one H chain only; also called He Ab) heavy 1: not shown heavy 2: not shown light: DIVMTQSPLSLPVTPGEPASISCQASESLVHSNRNTYLHWYLQKPGQSPQLLIYKVSNRFSGVPDRFSGSGSGTDFTLKISRVEAEDVGVYYCSQNTHVPPTFGQGTKVEIERTVAAPSVFIFPPSDEQLKSGTASVVCLLNNFYPREAKVQWKVDNALQSGNSQESVTEQDSKDSTYSLSSTLTLSKADYEKHKVYACEVTHQGLSSPVTKSFNRGEC
148 % of control | 221 % of control | 0.67 | heterodimerized antibody GpH7-A5/GpH7-B3 variant P238_09D/GpL16-k0 (antibody, human IgG1, kappa, He Ab: anti-glypican-3 IgG1, alteration in one H chain only; also called He Ab) heavy 1: not shown heavy 2: not shown light: DIVMTQSPLSLPVTPGEPASISCQASESLVHSNRNTYLHWYLQKPGQSPQLLIYKVSNRFSGVPDRFSGSGSGTDFTLKISRVEAEDVGVYYCSQNTHVPPTFGQGTKVEIERTVAAPSVFIFPPSDEQLKSGTASVVCLLNNFYPREAKVQWKVDNALQSGNSQESVTEQDSKDSTYSLSSTLTLSKADYEKHKVYACEVTHQGLSSPVTKSFNRGEC
144 % of control | 197 % of control | 0.73 | heterodimerized antibody GpH7-A5/GpH7-B3 variant N325_08L/GpL16-k0 (antibody, human IgG1, kappa, He Ab: anti-glypican-3 IgG1, alteration in one H chain only; also called He Ab) heavy 1: not shown heavy 2: not shown light: DIVMTQSPLSLPVTPGEPASISCQASESLVHSNRNTYLHWYLQKPGQSPQLLIYKVSNRFSGVPDRFSGSGSGTDFTLKISRVEAEDVGVYYCSQNTHVPPTFGQGTKVEIERTVAAPSVFIFPPSDEQLKSGTASVVCLLNNFYPREAKVQWKVDNALQSGNSQESVTEQDSKDSTYSLSSTLTLSKADYEKHKVYACEVTHQGLSSPVTKSFNRGEC
140 % of control | 204 % of control | 0.68 | heterodimerized antibody GpH7-A5/GpH7-B3 variant P238_08L/GpL16-k0 (antibody, human IgG1, kappa, He Ab: anti-glypican-3 IgG1, alteration in one H chain only; also called He Ab) heavy 1: not shown heavy 2: not shown light: DIVMTQSPLSLPVTPGEPASISCQASESLVHSNRNTYLHWYLQKPGQSPQLLIYKVSNRFSGVPDRFSGSGSGTDFTLKISRVEAEDVGVYYCSQNTHVPPTFGQGTKVEIERTVAAPSVFIFPPSDEQLKSGTASVVCLLNNFYPREAKVQWKVDNALQSGNSQESVTEQDSKDSTYSLSSTLTLSKADYEKHKVYACEVTHQGLSSPVTKSFNRGEC
151 % of control | 232 % of control | 0.65 | heterodimerized antibody GpH7-A5/GpH7-B3 variant P238_10E/GpL16-k0 (antibody, human IgG1, kappa, He Ab: anti-glypican-3 IgG1, alteration in one H chain only; also called He Ab) heavy 1: not shown heavy 2: not shown light: DIVMTQSPLSLPVTPGEPASISCQASESLVHSNRNTYLHWYLQKPGQSPQLLIYKVSNRFSGVPDRFSGSGSGTDFTLKISRVEAEDVGVYYCSQNTHVPPTFGQGTKVEIERTVAAPSVFIFPPSDEQLKSGTASVVCLLNNFYPREAKVQWKVDNALQSGNSQESVTEQDSKDSTYSLSSTLTLSKADYEKHKVYACEVTHQGLSSPVTKSFNRGEC
156 % of control | 218 % of control | 0.72 | heterodimerized antibody GpH7-A5/GpH7-B3 variant P238_15Y/GpL16-k0 (antibody, human IgG1, kappa, He Ab: anti-glypican-3 IgG1, alteration in one H chain only; also called He Ab) heavy 1: not shown heavy 2: not shown light: DIVMTQSPLSLPVTPGEPASISCQASESLVHSNRNTYLHWYLQKPGQSPQLLIYKVSNRFSGVPDRFSGSGSGTDFTLKISRVEAEDVGVYYCSQNTHVPPTFGQGTKVEIERTVAAPSVFIFPPSDEQLKSGTASVVCLLNNFYPREAKVQWKVDNALQSGNSQESVTEQDSKDSTYSLSSTLTLSKADYEKHKVYACEVTHQGLSSPVTKSFNRGEC
134 % of control | 169 % of control | 0.79 | heterodimerized antibody GpH7-A5/GpH7-B3 variant N325_20W/GpL16-k0 (antibody, human IgG1, kappa, He Ab: anti-glypican-3 IgG1, alteration in one H chain only; also called He Ab) heavy 1: not shown heavy 2: not shown light: DIVMTQSPLSLPVTPGEPASISCQASESLVHSNRNTYLHWYLQKPGQSPQLLIYKVSNRFSGVPDRFSGSGSGTDFTLKISRVEAEDVGVYYCSQNTHVPPTFGQGTKVEIERTVAAPSVFIFPPSDEQLKSGTASVVCLLNNFYPREAKVQWKVDNALQSGNSQESVTEQDSKDSTYSLSSTLTLSKADYEKHKVYACEVTHQGLSSPVTKSFNRGEC
